The series deals with the molecule itself. The experiment in a line: crystal structure; FtPPDK 10 mg/mL co-crystallized with 20 mM PEP and 10 mM NADH, microbatch, 17% PEG 3350, 100 mM MOPS pH 7, 100 mM magnesium formate, 21 °C; PDB 5JVJ, two monomers in the ASU.

B1: Pyruvate phosphate dikinase from Flaveria trinervia (C4-isoform) (enzyme, UniProt P22221 78-953, looked up)
chain: TAKKRVFTFGKGRSEGNRDMKSLLGGKGANLAEMSSIGLSVPPGLTISTEACEEYQQNGKSLPPGLWDEISEGLDYVQKEMSASLGDPSKPLLLSVRSGAAISMPGMMDTVLNLGLNDEVVAGLAGKSGARFAYDSYRRFLDMFGNVVMGIPHSLFDEKLEQMKAEKGIHLDTDLTAADLKDLVEKYKNVYVEAKGEKFPTDPKKQLELAVNAVFDSWDSPRANKYRSINQITGLKGTAVNIQSMVFGNMGNTSGTGVLFTRNPSTGEKKLYGEFLINAQGEDVVAGIRTPEDLGTMETCMPEAYKELVENCEILERHYKDMMDIEFTVQENRLWMLQCRTGKRTGKGAVRIAVDMVNEGLIDTRTAIKRVETQHLDQLLHPQFEDPSAYKSHVVATGLPASPGAAVGQVCFSAEDAETWHAQGKSAILVRTETSPEDVGGMHAAAGILTARGGMTSHAAVVARGWGKCCVSGCADIRVNDDMKIFTIGDRVIKEGDWLSLNGTTGEVILGKQLLAPPAMSNDLEIFMSWADQARRLKVMANADTPNDALTARNNGAQGIGLCRTEHMFFASDERIKAVRKMIMAVTPEQRKVALDLLLPYQRSDFEGIFRAMDGLPVTIRLLDPPLHEFLPEGDLEHIVNELAVDTGMSADEIYSKIENLSEVNPMLGFRGCRLGISYPELTEMQVRAIFQAAVSMTNQGVTVIPEIMVPLVGTPQELRHQISVIRGVAANVFAEMGVTLEYKVGTMIEIPRAALIAEEIGKEADFFSFGTNDLTQMTFGYSRDDVGKFLQIYLAQGILQHDPFEVIDQKGVGQLIKMATEKGRAANPSLKVGICGEHGGEPSSVAFFDGVGLDYVSCSPFRVPIARLAAAQVIV
notes: domains NBD aa 1-340, CD aa 380-515, PBD aa 535-874; Cloned into pET-16b with a histidine10 tag and a TEV site; Co-crystallized with PEP and NADH (5JVJ) or PEP and 2'-Br-dAppNHp (5JVL); also called FtPPDK; C4-PPDK
For B1, the binding result was “binds”.

Source of the values: PMC5371819, “Structural intermediates and directionality of the swiveling motion of Pyruvate Phosphate Dikinase” (Scientific Reports, 2017).
